In patent US10662230B2, “Cyclic RGD cell-binding motif and uses thereof” (Spiber Technologies AB, priority 2015, dated 2020):
Residue numbers refer to the chain shown, from its start.

B1: RGD-silk: 4RepCT silk with the linear RGD containing peptide (SEQ ID NO 12) of Widhe et al. (2013) (protein)
chain: GPNSRGDAGAASGQGGYGGLGQGGYGQGAGSSAAAAAAAAAAAAGGQGGQGQGGYGQGSGGSAAAAAAAAAAAAAAAGRGQGGYGQGSGGNAAAAAAAAAAAAAAAGQGGQGGYGRQSQGAGSAAAAAAAAAAAAAAGSGQGGYGGQGQGGYGQSSASASAAASAASTVANSVSRLSSPSAVSRVSSAVSSLVSNGQVNMAALPNIISNISSSVSASAPGASGCEVIVQALLEVITALVQIVSSSSVGYINPSAVNQITNVVANAMAQVMG
modifications: Fusion protein
B2: FNSS-silk: 4RepCT silk with linear control motif STGRGDSPAS (SEQ ID NO: 11), cysteines substituted for serines (protein)
chain: GPNSSTGRGDSPASGSASGQGGYGGLGQGGYGQGAGSSAAAAAAAAAAAAGGQGGQGQGGYGQGSGGSAAAAAAAAAAAAAAAGRGQGGYGQGSGGNAAAAAAAAAAAAAAAGQGGQGGYGRQSQGAGSAAAAAAAAAAAAAAGSGQGGYGGQGQGGYGQSSASASAAASAASTVANSVSRLSSPSAVSRVSSAVSSLVSNGQVNMAALPNIISNISSSVSASAPGASGCEVIVQALLEVITALVQIVSSSSVGYINPSAVNQITNVVANAMAQVMG
modifications: Fusion protein
B3: FNVS-silk: 4RepCT silk with original fibronectin motif VTGRGDSPAS (SEQ ID NO: 9), linear native control (protein)
chain: B2 chain with S5V
modifications: Fusion protein

Columns and labels:
Assay type in all cases: cell-based
[1] = system: Normal human epidermal keratinocytes (KC); experiment: Early attachment assay, keratinocytes on silk films; conditions: for adhesion in each individual experiment: KC on tested silk films
Description: Normal human epidermal keratinocytes from adult skin (NHEK-ad) were purchased from Lonza. Subculture, proliferation and migration experiments were done in KGM-Gold (Lonza), containing bovine pituitary extract, whereas adhesion experiments were performed in KGM-CD (chemically defined), supplemented with CaCl2) to give 1.2 mM Ca^2+.
Cells were harvested at passage 3-8, seeded at 20 000/cm^2 and allowed to adhere to the films or controls for 1 h in a cell incubator before gentle washing twice with pre-warmed phosphate buffered saline (PBS) followed by 10 min fixation with 96% ethanol. After three washings in water, cells were stained for 30 min with 0.1% Crystal Violet in H2O. Plates were dried after extensive washing in water.
Attachment and morphology of cells bound to the films obtained in Example 3 were documented by taking micrographs at 2× and 10× magnification in an inverted bright field microscope. The color was then dissolved in 40 μL 20% acetic acid for 10 min, and 35 μL of the solution was transferred to a 384-well plate for optical density measurement at 595 nm (TECAN Infinite M200). Wells with cells fixed without pre-washing was used as positive control. Wells with no cells were used as blank. Experiments were run in hexaplicates and repeated three times.
Determination of cell coverage area within a defined region (9.12 mm^2) of the micrographs (at 2× magnification) was done using the software NIS elements BR (Nikon).
After seeing this positive effect of the introduced FNCC motif, we wanted to find out how well the FNCC-silk would compare to native, full length fibronectin, where the RGD is presented on a turn loop constrained by the structure. We therefore used fibronectin from bovine plasma (BFN) to coat cell culture wells, as well as naked cell culture treated plastic (TCT), on which KC can be cultured, as a control. Serum-free experimental conditions was chosen to avoid possible interactions between the matrices and serum proteins that potentially could give rise to increased cell adherence.
For this purpose, we used two FN-silk variants where a linear RGD presentation is expected (FIG. 1a). The first variant (FNVS; SEQ ID NO: 15), contains the original sequence of the RGD-containing motif in fibronectin, to show the effect of the native flanking amino acids without influence of the loop conformation. In the second variant (FNSS; SEQ ID NO: 14), the two flanking cysteines in FNCC were substituted for serine, which resembles cysteine but lacks the —SH-group and is therefore unable to form disulfide bridges. The different FN-silk variants, as well as RGD-silk (SEQ ID NO: 16) and WT-silk (SEQ ID NO: 2), were evaluated with primary KC. Cells were analyzed both for early attachment (FIG. 5), spreading and formation of stress fibers (FIG. 6), and focal adhesions (FIG. 7). Early attachment assay and cellular stainings were performed as detailed in Example 6.

[2] = system: Normal human epidermal keratinocytes (KC); experiment: Cell spreading by F-actin staining, keratinocytes; conditions: 3 h adhesion; for spreading of KC (total cell area in 4× micrographs): seeding 3 500/cm^2
Description: Cells were harvested at passage 3-8, seeded at 3500/cm^2 and allowed to adhere onto films for 20 min, 1 or 3 hours in chamber slides. After gentle washing, cells were fixed with 4% paraformaldehyde, permeabilized with 0.1% Triton X-100 in PBS, and blocked with 1% bovine serum albumin (BSA, AppliChem) in PBS. Secondary antibody was AlexaFlour488 goat anti mouse IgG (H+L), cross adsorbed (Invitrogen), used at 1:500. Phalloidin-AlexaFluor594 (Life Technologies) were used at 1:40 to detect filamentous actin. DAPI was used for nuclear staining. Slides were mounted in Fluorescence mounting medium (Dako, Copenhagen). The stained cells were analyzed using an inverted microscope (Nikon Eclipse Ti) at 4× and 10× magnification. Excitation at 563/45 nm and detection at 625/50 nm was used for red fluorescence, whereas excitation with 387/11 nm and detection at 447/60 nm was used to monitor blue fluorescence. By staining for F-actin, cell spreading and formation of stress fibers in KC after 3 h adhesion were investigated (FIG. 6).

[3] = system: Normal human epidermal keratinocytes (KC); experiment: Formation of focal adhesions (F-actin/vinculin staining), keratinocytes; conditions: 3 h adherence, 63× magnification
Description: Cells were harvested at passage 3-8, seeded at 3500/cm^2 and allowed to adhere onto films for 20 min, 1 or 3 hours in chamber slides. After gentle washing, cells were fixed with 4% paraformaldehyde, permeabilized with 0.1% Triton X-100 in PBS, and blocked with 1% bovine serum albumin (BSA, AppliChem) in PBS.
Primary antibody were used at the following concentrations in 1% BSA: mouse anti human vinculin (Sigma V9131) at 9.5 μg/ml, mouse-anti human beta1-integrin (activated conformation, clone HUTS-4) at 3.3 μg/mL, or mouse-anti human alpha5-integrin (ligand bound conformation, clone SNAKA-51) at 2.5 μg/mL, both Millipore.
Secondary antibody was AlexaFlour488 goat anti mouse IgG (H+L), cross adsorbed (Invitrogen), used at 1:500. Phalloidin-AlexaFluor594 (Life Technologies) were used at 1:40 to detect filamentous actin. DAPI was used for nuclear staining. Slides were mounted in Fluorescence mounting medium (Dako, Copenhagen).
For microscopic analysis of cell adhesion (formation of focal adhesions and stress fibers), a confocal microscope was used (Carl Zeiss LSM 710) at 10× and 63× magnification.
Quality of focal adhesions were graded from 1-4 regarding presence of small and dim focal adhesion (=1p), small and distinct focal adhesions (=2p), abundant focal adhesions (=3p) and large and bright focal adhesions (=4p), and multiplied with the portion of positive cells expressing this specific type of focal adhesions (0-4, where 0≈none of, 1≈one fourth of, 2≈half of, 3≈three fourths of, and 4≈all of the focal adhesion-positive cells.)
Formation of focal adhesions within the cells was analyzed after 3 h by staining for F-actin in combination with vinculin, which is one of the major components of the focal adhesion complex. Co-staining of F-actin and vinculin is thus a sign of integrin-involved, well established binding of cells to the underlying substrate. Focal adhesions appear as yellow-greenish elongations of the F-actin filaments, often situated close to the cell membrane.
The results from the analysis of formation and characterization of focal adhesions in KC after adherence for 3 h onto films of WT-silk (SEQ ID NO: 2) or silk functionalized with FNCC (SEQ ID NO: 13), FNVS (SEQ ID NO: 15), FNSS (SEQ ID NO: 14) or RGD (SEQ ID NO: 16) is presented in FIG. 7. Slides were scanned with a confocal microscope at 10× for overview (FIG. 7a) and at 63× for details (FIG. 7b). Two types of grading of the focal adhesions in the cells were performed.

Molecule	cell coverage area within a defined region (9.12 mm^2) ([1]; KC, 1 h adhesion, comparison with bovine fibronectin coating and TCT plastic, serum-free)	cell morphology (F-actin) [2]	quality (grading) of focal adhesions [3]	adhesion in each individual experiment [1]	spreading of KC (total cell area in 4× micrographs) [2]
BFN: fibronectin from bovine plasma (Sigma-Aldrich F1137), coated at 5 μg/cm^2 [reference compound]	bound equally well to the BFN and the FNCC-silk after 1 h adherence, and importantly both significantly better than TCT				
B1		a higher proportion of cells with a rounded appearance	variation of focal adhesion quality is larger in cells on RGD, FNSS and FNVS than on FNCC-silk		
B2		a higher proportion of cells with a rounded appearance	both prominent and subtle focal adhesions	varied from being similar to RGD-silk to being only somewhat lower than on FNCC-silk	but not FNSS or FNVS films, gave a significantly increased spreading of KC compared to RGD-film
B3		a higher proportion of cells with a rounded appearance	both prominent and subtle focal adhesions	varied from being similar to RGD-silk to being only somewhat lower than on FNCC-silk	but not FNSS or FNVS films, gave a significantly increased spreading of KC compared to RGD-film
